Consider 1 molecule from patent US20140193401A1 (published 2014).

For this test, the target named is pertussis toxin holotoxin (Bordetella pertussis, UniProt P04977 35-269; P04978 31-226; P04979 32-227; P0A3R5 43-152; P04981 36-133). Briefly: cell-based or functional assay.

B1: 1B7 Fab (Fab)
chain: DIQMTQSPALMSASPGEKVTMTCSASSSVSFMYWYQQKPRSSPKPWIYLTSNLPSGVPARFSGSGSGTSYSLTISSMEAEDAATYYCQQWSSHPPTFGSGTKLEIKRGGGGSGGGGSGGGGSGGGGSEVQLQQSGSELVRPGASVKLSCKASGYKFTSYWMHWVKQRPGQGLEWIGNIFPGSGSTNYDEKFNSKATLTVDTSSNTAYMQLSSLTSEDSAVYYCTRWLSGAYFDYWGQGTTLTVSSASGA
For the molecule B1, the “In Vitro Neutralization (nM), minimum protective concentration, CHO clustering assay” value was determined as 42 nM.
